Source: the nanobody polyreactivity screen of Harvey et al. (2022)

assay: yeast display, Sf9 membrane polyspecificity reagent, FACS + sequencing; frameworks hold sequencing errors
In short: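 Sorting gates, low and high (top ~1%), were placed on anti-HA fluorescence to track expression and on streptavidin fluorescence to track reagent binding. A clone's polyreactivity label is taken from the gate it came out of. The reagent was 10% biotinylated, detergent-solubilized Sf9 membrane, applied for 1 hour at 4 °C to galactose-induced yeast display cells.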

| Sequence | polyreactivity (PSR sort gate) |
| --- | --- |
| QVQLVESGGGLVQAGGSLRLSCAASGFIFSYYVMGWYREAPGKERELVAAISWNGGSTFYADSVKGRFTISRDNAKNSVYLQMNSLKPEDTAVYYCAAYPRFYGGKYGEYGYWGQGTQVTVSS | high polyreactivity |
| QVQLVESGGGLVQAGGSLRLSCAASGFIFSYYVMGWYRQAPGKERELVAAINESGGRTYYADSVKGRFTISRDNAKNTVYLQMNSLKQEDTAVYYCAASVLNKIQGYRDYYWGQGTKVTVSS | low polyreactivity |
| QVQLVESGGGLVQAGGSLRLSCAASGFIFTANAMGWYRQAPGKERELVAAINWSDGGTYYADSVKGRFTISRDNAKNTVYLQMNSLKPEDTAVYYCNAQWAWTYYYWGQGTQVTVSS | low polyreactivity |
| QVQLVESGGGLVQAGGSLRLSCAASGFIFTDNAMGWYRQAPGKERELVAAISKNGGSTYYADSVKGRFTISRDNAKNTVYLQMNSLKQEDTAVYYCNTRRKNFVKSSQVEYWGQGTQVTVSS | high polyreactivity |
| QVQLVESGGGLVQAGGSLRLSCAASGFIFTDYAMGWYRQATGQEREFVAAIDWSGGNTYYADSVKGRFTISRDNAKNTVYLQLNSLKPEDTAVFFCSASGSAREYDYWGQGTQVTVSS | low polyreactivity |
| QVQLVESGGGLVQAGGSLRLSCAASGFIFTGYAMGWYRQAPGKERELVAAISSSGGRTYYADSVKGRFTISRDNAKNTVYLQMNSLKPEDTAVYYCAAYYITFIGRGYGYWGQGTQVTVSS | high polyreactivity |
| QVQLVESGGGLVQAGGSLRLSCAASGFIFTIYALGWYRQAPGKERELVAAIDSSGTTYYADSVKGRFTISRDNAKNTVYLQMNSLKPEDTAVYYCNTDIYVQYGWGQGTQVTVSS | low polyreactivity |
| QVQLVESGGGLVQAGGSLRLSCAASGFIFTIYAMGWYRQAPGKERELVAAITWNGGRTYYADSVKGRFTISRDNAKNTVDLQMNSLKPEDTAVYYCAARYGRAYDYWGQGSQVTVSS | high polyreactivity |
| QVQLVESGGGLVQAGGSLRLSCAASGFIFTKYSMGWYRQAPGKERELVAAIRGSGGSTYYADSVKGRFTISRDIAKNSVYLQMNSLKPEDTAVYYCAAERSLGYDYWGQGTQVTVSS | high polyreactivity |
| QVQLVESGGGLVQAGGSLRLSCAASGFIFTPNAMGWYRQAPGKERELVATISWRGTGTYYADSVKGRFTISRDTAKNTVYLQMNSLNPVDTAVYYCAVRFYSFHYYRIYTYSVTYDYWGQGTQVTVSS | high polyreactivity |
| QVQLVESGGGLVQAGGSLRLSCAASGFIFTPYAMGWYRQAPGKERELVAAITWRGARTYYADSVKGRFTISRDNAKNTVYLQMNSLKPEDTAVYYCATTFTGYNKEFGYWGQGTQVTVSS | high polyreactivity |
| QVQLVESGGGLVQAGGSLRLSCAASGFIFTQNAMGWYRQAPGKERELVAVIRWNGGSTYYADSVKGRITISRDNAKNTVYLQMNSLKREDTAVYYCAAEFLWIVDYWGQGTQVTVSS | low polyreactivity |
| QVQLVESGGGLVQAGGSLRLSCAASGFIFTQNGMGWYRQAPGKERELVAAISWSAGGTYYADSVKGRFTISRDNAKNTVYLQMNSLKPEDTAVYYCNARVYNVFREFNSWGQGTQVTVSS | low polyreactivity |
| QVQLVESGGGLVQAGGSLRLSCAASGFIFTQYAMGWYRQSPGKERELVAGITSSGNTYYADSVKGRFTISRDNAKNTVYLQMNSLKPEDTAVYYCAARSYVRRFDGGYWGQGTQVTVSS | high polyreactivity |
| QVQLVESGGGLVQAGGSLRLSCAASGFIFTRNVMGWYRQAPGKEMELVASISKSSGSTYYADSVKGRFTISRDNAKNTVYLQMNSLNPEDTAVYYCATYAKQLSPYYYWGQGIQVTVSS | high polyreactivity |
| QVQLVESGGGLVQAGGSLRLSCAASGFIFTRYAMGWYRQAPGKEREFVARIDSSGGSTYYADSVKGRFTISRDNAKNTVYLQMNSLKPEDTAVYYCAAVGYRFGSYYWGQGTKVTVSS | high polyreactivity |
| QVQLVESGGGLVQAGGSLRLSCAASGFIFTRYAMGWYRQAPGKERELVAVITSSGGTYYADSVKGRFTISRDNAKNSVYLQMNSLKPEDTAVYYCNADFYRVAYLRRYSHFDYWGQGTQVTVSS | high polyreactivity |
| QVQLVESGGGLVQAGGSLRLSCAASGFIFTSYAMAWYRQAPGKERELVAAIDYSGGSTYYADSVKGRFTISRDNAKNTVYLQINSLKPEDTAVYYCSAGEGLWPGSQTYDYWGQATQVTVSS | low polyreactivity |
| QVQLVESGGGLVQAGGSLRLSCAASGFIFTSYAMGWYRQAPGKERELVAAIDYSGGSTYYADSVKGRFTISRDNAKNTVYLQMNSLKPEDTAVYYCAAGDGLWPGSQTYDYWGQGTQVTVSS | low polyreactivity |
| QVQLVESGGGLVQAGGSLRLSCAASGFIFTSYAMGWYRQAPGKERELVAAITRSGGRTYYADSVKGRFTISRDNAKNTVYLQMNSLKPEDTAVYYCAAVTFYQSPARGYWGQGTQVTVSS | high polyreactivity |
| QVQLVESGGGLVQAGGSLRLSCAASGFIFTSYAMGWYRQAPGKERELVATISSSGGSTTYADSVKGRFTISRDNAKNTVYLQMNSLKPEDTAVYYCAAAVYVVRYVSLYRRYYWGQGTQVTVSS | high polyreactivity |
| QVQLVESGGGLVQAGGSLRLSCAASGFIFTYYAMGWYRPAPGKERELVATISSGGGSTYYADSVKGRFTISRDNAKNTVYLQMNSLKPEDTAVYYCAASRRITGIRYLNRYEYWGQGTQVTVSS | high polyreactivity |
| QVQLVESGGGLVQAGGSLRLSCAASGFIFTYYAMGWYRQAPGKERELVARITSGGASTYYADSVKGRFTISRDNAKNTVYLQMNSLKPEDTAVYYCAAQARGWGYDYWGQGTQVTVSS | low polyreactivity |
| QVQLVESGGGLVQAGGSLRLSCAASGFIFVINAMGWYRQAPGKERELVAGISSGGRTNYADSVKGRFTISRDNAKNTVYLEMKSLKPEDTAVYYCAAAPTYKWRRKNYDYWGQGTQVTVSS | high polyreactivity |
| QVQLVESGGGLVQAGGSLRLSCAASGFIFVKYAMGWYRQAPGKEREFVAAISQSGGNTYYADSVKGRFTISRDNAKNTVYLQMNSLKPEDTAVYYCNAKSYTRRSYYTPTVPGDYWGQGTQVTVSS | low polyreactivity |
| QVQLVESGGGLVQAGGSLRLSCAASGFIFVLNAMGWYRQAPGKERELVAAIRWSGGSTYYADSVKGRFTISRDNAKNTVYLQMNSLKPEDTAVYYCAARLWLKVQYLRFFGYDYWGQGTQVTVSS | low polyreactivity |
| QVQLVESGGGLVQAGGSLRLSCAASGFIFVNYMGWYRQAPGKERELVAAISRGGSTNYADSVKGRFTISRDNAKNTVYLQMNSLKPEDTAVYYCAAETWYSGYTYDYWGQGTQVTVSS | low polyreactivity |
| QVQLVESGGGLVQAGGSLRLSCAASGFIFVPNAMGWYRQAPGKERELVAAIRWSDGTTYYADSVKGRFTISRDNAKNNVYLQMNSLKPEDTAVYYCATDHDPRYDYWGQGTQVTVSS | high polyreactivity |
| QVQLVESGGGLVQAGGSLRLSCAASGFIFVPNTMGWYRQAPGKERELVAAITSVGSTNYADSVKGRFTISRDNAKNTVYLQMNSLKPEDTAVYYCPATLYYQYGGDYWGQGTQVTVSS | low polyreactivity |
| QVQLVESGGGLVQAGGSLRLSCAASGFIFVPYAMGWYRQAPGKERELVAAISSGGSTYYADSVKGRFTISRDNAKNTVYLQMNSLKPEDTAVYYCNKRYYLYQYRYDYWGQGTQVTVSS | low polyreactivity |
